In patent US10065993B2, “Peptides and peptide/active compound conjugates for renal targeting” (MERCK PATENT GMBH, priority 2013, dated 2018):
Ends that are not written are not given here. Peptide text beside a SMILES is read from it. * marks the point of attachment. ξ: configuration not given here. Lipoyl(6ξ) = O=C(CCCCC1CCSS1)*

Columns and labels:
[1] = system: kidneys (i.e. proximal tubule cells, PTCs); conditions: in vivo; cited from earlier work
kidney = assay: Scintigraphic / SPECT distribution of radiolabelled peptides and conjugates (kidney selectivity); parameters: species or system NMRI mice; conditions: mouse, in vivo; for kidney specificity: iv
Method: The labelling is carried out using a 1 mM stock solution of the peptide to be labelled in water (dimethyl sulfoxide (DMSO) may have to be added for better solubility). Tyrosine-containing peptides are labelled with iodine-123, iodine-125 or iodine-131 (Perkin-Elmer, Waltham, Mass., USA) by means of the chloramine-T method. To this end, 20 μl of phosphate buffer (0.25 M, pH 7.4) are added to 10 μl of the stock solution, and the desired amount of radioactive iodine is added. For the labelling, 5 μl of chloramine-T (2 mg/ml of H2O) are added. The reaction is carried out for 30 seconds and is subsequently terminated using 10 μl of a saturated methionine solution. In order to separate off free iodine and by-products, the reaction mixture is purified by means of semipreparative HPLC (Chromolith RP-18e, 100×4.6 mm). The separation is carried out using a linear gradient from 0.1% of TFA in water to 0.1% of TFA in acetonitrile in 10 minutes (flow rate: 2 ml/min, UV absorption at 214 nm, γ detection). The solvent is subsequently removed in a rotary evaporator, and the labelled peptide is taken up in the desired buffer.
The tyrosine-containing peptides are labelled with ^125iodine by means of the chloramine-T method. For the labelling, a 1 mM stock solution in water is used. If necessary, DMSO is added for better solubility. To this end, 20 μl of phosphate buffer (0.25 M, pH 7.4) are added to 10 μl of the stock solution, and the desired amount of radioactive iodine is added. The labelling is carried out using 5 μl of chloramine-T (2 mg/ml of H2O). The reaction is carried out for 30 seconds and is subsequently terminated using 10 μl of a saturated methionine solution.
After the labelling, the peptide is purified by means of semi-preparative HPLC in order to remove the excess free iodine and other by-products. 100 μl of the 0.1 mM stock solution are in each case used for the injection. Before the injection, the radioactivity is recorded by means of a Geiger counter. […]

In the case of `C[C@@H](O)[C@@H]1NC(=O)[C@H](CCCCN)NC(=O)[C@@H](Cc2c[nH]c3ccccc23)NC(=O)[C@H](Cc2ccc(O)cc2)NC(=O)[C@@H](NC(=O)[C@@H](Cc2ccccc2)NC(=O)CN2CCN(CC(=O)O)CCN(CC(=O)O)CCN(CC(=O)O)CC2)CSSC[C@@H](C(=O)N[C@H](CO)[C@@H](C)O)NC1=O` [DOTATOC], the “uptake by the kidneys” value [1] is listed as “about 20%”.

In the case of `NCCCCC(NC(=O)C(CCC(=O)O)NC(=O)C(CCC(=O)O)NC(=O)C(CCC(=O)O)NC(=O)C(CCCCNC(=O)CCCCC1CCSS1)NC(=O)C(CCCCN)NC(=O)C(CCCCN)NC(=O)C(CCC(=O)O)NC(=O)C(CCC(=O)O)NC(=O)C(CCC(=O)O)NC(=O)C(CCCCNC(=O)CCCCC1CCSS1)NC(=O)C(CCCCN)NC(=O)C(CCCCN)NC(=O)C(CCC(=O)O)NC(=O)C(CCC(=O)O)NC(=O)C(CCC(=O)O)NC(=O)C(CCCCNC(=O)CCCCC1CCSS1)NC(=O)C(CCCCN)NC(=O)C(CCCCN)NC(=O)C(N)Cc1ccc(O)cc1)C(N)=O` (stereo not shown) [y(KKKε(lipoic acid)EEE)3K] (H-YKKK(Lipoyl(6ξ))EEEKKK(Lipoyl(6ξ))EEEKKK(Lipoyl(6ξ))EEEK-NH2; configuration not given here), the kidney specificity (kidney) is reported as “high kidney specificity”.

With “diacetylcaffeic acid (KKEEE)3K: diacetylcaffeic acid bonded at the N terminal of y(KKEEE)3K (KKEEEKKEEEKKEEEK-NH2; not fully specified (N-terminus))” the kidney specificity (kidney) was “retain their high kidney specificity”.

For “(APASLYN)2: dimer of literature kidney-selective peptide APASLYN (Denby et al.), SEQ ID NO: 90 (APASLYNAPASLYN; not fully specified)”, the kidney selectivity (kidney) was “already inadequate”.
